Assay results reported in FireProtDB.

B1: Subtilisin BPN', P00782 (parent)
chain: MRGKKVWISLLFALALIFTMAFGSTSSAQAAGKSNGEKKYIVGFKQTMSTMSAAKKKDVISEKGGKVQKQFKYVDAASATLNEKAVKELKKDPSVAYVEEDHVAHAYAQSVPYGVSQIKAPALHSQGYTGSNVKVAVIDSGIDSSHPDLKVAGGASMVPSETNPFQDNNSHGTHVAGTVAALNNSIGVLGVAPSASLYAVKVLGADGSGQYSWIINGIEWAIANNMDVINMSLGGPSGSAALKAAVDKAVASGVVVVAAAGNEGTSGSSSTVGYPGKYPSVIAVGAVDSSNQRASFSSVGPELDVMAPGVSIQSTLPGNKYGAYNGTSMASPHVAGAAALILSKHPNWTNTQVRSSLENTTTKLGDSFYYGKGLINVQAAAQ
B2: Barstar, P11540 (parent)
chain: MKKAVINGEQIRSISDLHQTLKKELALPEYYGENLDALWDCLTGWVEYPLVLEWRQFEQSKQLTENGAESVLQVFREAKAEGCDITIILS
B3: Azurin, P00282 (parent)
chain: MLRKLAAVSLLSLLSAPLLAAECSVDIQGNDQMQFNTNAITVDKSCKQFTVNLSHPGNLPKNVMGHNWVLSTAADMQGVVTDGMASGLDKDYLKPDDSRVIAHTKLIGSGEKDSVTFDVSKLKEGEQYMFFCTFPGHSALMKGTLTLK
B4: Guanyl-specific ribonuclease Sa, P05798 (parent)
chain: DVSGTVCLSALPPEATDTLNLIASDGPFPYSQDGVVFQNRESVLPTQSYGYYHEYTVITPGARTRGTRRIITGEATQEDYYTGDHYATFSLIDQTC
B5: Proteinase inhibitor, Q03026 (parent)
chain: MSASAKLSRMVCLLCGFFSTGISMASSLILLSASDLAGQWTLQQDEAPAICHLELRDSEVAEASGYDLGGDTACLTRWLPSEPRAWRPTPAGIALLERGGLTLMLLGRQGEGDYRVQKGDGGQLVLRRATP
B6: Glutamate dehydrogenase, P96110 (parent)
chain: MPEKSLYEMAVEQFNRAASLMDLESDLAEVLRRPKRVLIVEFPVRMDDGHVEVFTGYRVQHNVARGPAKGGIRYHPDVTLDEVKALAFWMTWKTAVMNLPFGGGKGGVRVDPKKLSRNELERLSRRFFSEIQVIIGPYNDIPAPDVNTNADVMAWYMDTYSMNVGHTVLGIVTGKPVELGGSKGREEATGRGVKVCAGLAMDVLGIDPKKATVAVQGFGNVGQFAALLISQELGSKVVAVSDSRGGIYNPEGFDVEELIRYKKEHGTVVTYPKGERITNEELLELDVDILVPAALEGAIHAGNAERIKAKAVVEGANGPTTPEADEILSRRGILVVPDILANAGGVTVSYFEWVQDLQSFFWDLDQVRNALEKMMKGAFNDVMKVKEKYNVDMRTAAYILAIDRVAYATKKRGIYP

Variants of: B1
Settings: Bacillus amyloliquefaciens; pH 5; 20 °C; Thermal; DSC; Sodium acetate 100 mM; reversible: yes; structure 1SUP; whole UniProt chain shown

Variant | ddG of mutation (higher = less stable) [kcal/mol] | unfolding free energy [kcal/mol]
Q70L | 1.1 | 1
E62Q K87E | 1.3 | 0.8
K87E | 1 | 1.1

Same assay, conditions: Bacillus amyloliquefaciens; pH 8; Thermal; DSC; Tris-HCl 50 mM; KCl 50 mM; structure 1SUP; whole UniProt chain shown

Variant | Tm [°C] | change of melting temperature, mutant - wild type (higher = more stable) [°C]
S194C | 57.2 | -1.7
T129C S194C | 62 | 3.1
T129C | 56.4 | -2.5

Same assay, conditions: Bacillus amyloliquefaciens; pH 9.63; Thermal; DSC; glycine 50 mM; reversible: yes; structure 1SUP; whole UniProt chain shown

Variant | Tm [°C] | unfolding enthalpy (calorimetric) [kcal/mol] | unfolding enthalpy (van 't Hoff) [kcal/mol]
M157F Y324K N325S S328C | 63.5 | 140 | 140

Same assay, conditions: Bacillus amyloliquefaciens; pH 7.5; Thermal; fluorescence; Pipes 10 mM; transition: 2; structure 1AK9; whole UniProt chain shown

Variant | Tm [°C] | change of melting temperature, mutant - wild type (higher = more stable) [°C] | unfolding enthalpy (calorimetric) [kcal/mol]
T173M G209D | 56.3 | -0.5 | 72.8

Same assay, conditions: Bacillus amyloliquefaciens; pH 8; Thermal; DSC; Tris-HCl 50 mM; CaCl2 10 mM; reversible: no; structure 1SUP; whole UniProt chain shown

Variant | Tm [°C] | change of melting temperature, mutant - wild type (higher = more stable) [°C]
N325S | 80.7 | 2.4

Variants of: B2
Settings: Bacillus amyloliquefaciens; pH 8; 10 °C; Urea; CD; Tris Cl 50 mM; KCl 100 mM; structure 1BTA; whole UniProt chain shown

Variant | ddG of mutation (higher = less stable) [kcal/mol] | unfolding free energy [kcal/mol]
I6V | 1 | 2
L35V | 1.1 | 1.9
L52V | 0.6 | 2.4
L17V | 1.1 | 1.9

Same assay, conditions: Bacillus amyloliquefaciens; pH 7; Thermal; CD; phosphate 20 mM; structure 1A19; whole UniProt chain shown

Variant | Tm [°C]
H18Q | 65

Variants of: B3
Settings: Pseudomonas aeruginosa (strain ATCC 15692 / DSM 22644 / CIP 104116 / JCM 14847 / LMG 12228 / 1C / PRS 101 / PAO1); pH 7; 20 °C; GdnHCl; CD; phosphate 5 mM; reversible: yes; structure 5AZU; whole UniProt chain shown

Variant | denaturant m value [kcal/mol/M] | denaturant midpoint (higher = more stable) [M] | unfolding free energy [kcal/mol]
H66G | 3.94 | 1.1 | 4.35

Same assay, conditions: Pseudomonas aeruginosa (strain ATCC 15692 / DSM 22644 / CIP 104116 / JCM 14847 / LMG 12228 / 1C / PRS 101 / PAO1); pH 7.5; 40 °C; GdnHCl; Fluorescence; Tris Cl 2 mM; reversible: Yes; structure 5AZU; whole UniProt chain shown

Variant | ddG of mutation (higher = less stable) [kcal/mol] | unfolding free energy [kcal/mol]
I27S | 6.4 | 2.2
F130S | 6.4 | 2.2

Variants of: B4
Settings: Kitasatospora aureofaciens; pH 7; 25 °C; Thermal; CD; MOPS 30 mM; structure 1RGG; whole UniProt chain shown

Variant | ddG of mutation (higher = less stable) [kcal/mol]
D17K | 1.1
E74K | -1.1
E41K | 1.2
D25H | -0.9

Variants of: B5
Settings: Pseudomonas aeruginosa (strain ATCC 15692 / DSM 22644 / CIP 104116 / JCM 14847 / LMG 12228 / 1C / PRS 101 / PAO1); pH 7.1; 25 °C; GdnHCl; CD; Tris-HCl 50 mM; reversible: yes (75%); structure 2RN4; whole UniProt chain shown

Variant | ddG of mutation (higher = less stable) [kcal/mol] | unfolding free energy [kcal/mol]
W40F | -1.1 | 4.9
D35A | -2.7 | 6.5
A33P | -3.2 | 7

Same assay, conditions: Pseudomonas aeruginosa (strain ATCC 15692 / DSM 22644 / CIP 104116 / JCM 14847 / LMG 12228 / 1C / PRS 101 / PAO1); pH 7.1; Thermal; CD; sodium phosphate 20 mM; NaCl 0.1 M; reversible: yes (75%); structure 2RN4; whole UniProt chain shown

Variant | Tm [°C] | change of melting temperature, mutant - wild type (higher = more stable) [°C] | unfolding enthalpy (van 't Hoff) [kcal/mol]
D35A | 81.5 | 17.7 | 84.5

Variants of: B6
Settings: Thermotoga maritima (strain ATCC 43589 / DSM 3109 / JCM 10099 / NBRC 100826 / MSB8); pH 7.4; Thermal; DSC; Sodium phosphate 20 mM; reversible: no; structure 1B26; whole UniProt chain shown

Variant | Tm [°C]
N118R | 88.7
S129R | 87
S129R T159E N118R | 89.6
S129R T159E N118R S161E | 88.3
S129R T159E S161E | 88
